# Laboratory results reported in publication PMC6776259 (PLoS Pathogens, 2019).
# Biological target: the molecule itself
# Assay: split reporter (BiFC, NanoBiT)
protein,measurement,value
"WSN FluPol heterotrimer in cells infected with recombinant WSN viruses expressing PB1-Gluc1 and PB1-Gluc2 (complex, copies: + +) chain 1: MDVNPTLLFLKVPAQNAISTTFPYTGDPPYSHGTGTGYTMDTVNRTHQYSERGRWTTNTETGAPQLNPIDGPLPEDNEPSGYAQTDCVLEAMAFLEESHPGIFETSCLETMEVVQQTRVDKLTQGRQTYDWTLNRNQPAATALANTIEVFRSNGLTANESGRLIDFLKDVMESMNKEEMEITTHFQRKRRVRDNMTKKMVTQRTIGKRKQRLNKRSYLIRALTLNTMTKDAERGKLKRRAIATPGMQIRGFVYFVETLARSICEKLEQSGLPVGGNEKKAKLANVVRKMMTNSQDTEISFTITGDNTKWNENQNPRMFLAMITYITRNQPEWFRNVLSIAPIMFSNKMARLGKGYMFESKSMKIRTQIPAEMLASIDLKYFNDSTRKKIEKIRPLLIDGTASLSPGMMMGMFNMLSTVLGVSILNLGQKRHTKTTYWWDGLQSSDDFALIVNAPNHEGIQAGVNRFYRTCKLLGINMSKKKSYINRTGTFEFTSFFYRYGFVANFSMELPSFGVSGINESADMSIGVTVIKNNMINNDLGPATAQMALQLFIKDYRYTYRCHRGDTQIQTRRSFEIKKLWEQTHSKAGLLVSDGGPNLYNIRNLHIPEVCLKWELMDEDYQGRLCNPLNPFVNHKDIESVNNAVIMPAHGPAKNMEYDAVATTHSWIPKRNRSILNTSQRGILEDEQMYQKCCNLFEKFFPSSSYRRPVGISSMVEAMVSRARIDARIDFESGRIKKEEFTEIMKICSTIEELRRQK chain 2: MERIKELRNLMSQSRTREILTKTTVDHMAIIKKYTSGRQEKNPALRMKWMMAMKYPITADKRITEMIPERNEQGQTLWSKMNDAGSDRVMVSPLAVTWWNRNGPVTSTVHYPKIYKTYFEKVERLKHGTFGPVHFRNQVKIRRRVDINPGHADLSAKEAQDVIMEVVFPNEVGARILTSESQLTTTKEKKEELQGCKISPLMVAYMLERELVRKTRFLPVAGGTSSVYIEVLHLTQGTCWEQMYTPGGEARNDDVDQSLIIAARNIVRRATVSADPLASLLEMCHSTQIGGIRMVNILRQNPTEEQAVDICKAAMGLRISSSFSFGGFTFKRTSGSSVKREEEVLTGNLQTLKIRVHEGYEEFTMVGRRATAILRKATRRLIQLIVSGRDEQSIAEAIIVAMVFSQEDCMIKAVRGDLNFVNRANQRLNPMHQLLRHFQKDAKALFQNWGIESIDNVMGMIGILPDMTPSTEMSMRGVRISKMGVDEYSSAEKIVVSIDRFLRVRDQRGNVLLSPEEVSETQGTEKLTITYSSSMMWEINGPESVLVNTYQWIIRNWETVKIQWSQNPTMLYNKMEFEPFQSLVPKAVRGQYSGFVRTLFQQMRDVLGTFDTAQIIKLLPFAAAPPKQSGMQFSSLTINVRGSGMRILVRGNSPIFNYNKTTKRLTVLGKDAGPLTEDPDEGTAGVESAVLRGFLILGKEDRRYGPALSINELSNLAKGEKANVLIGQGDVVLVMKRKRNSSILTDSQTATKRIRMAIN chain 3: […]","luciferase activity, fold over background",> 1000 fold over background
